Consider one substance from patent US7422862B2, “Methods for identifying modulators of apoptosis” (The Burnham Institute, priority 2001, dated 2008).

One test concerns the target purified recombinant Bax (Homo sapiens, UniProt Q07812). As to the kind of experiment: Isolated mitochondria: Bax association and cytochrome c release assay. It is filed as biochemical. To be noted: 100 μM peptide preincubated with Bax, HCT116 mitochondria. As to the method: (§1) (A-B) Humanin peptide prevents STS-induced Bax translocation in vivo. Cos-7 cells were first transfected with GFP-Bax plasmids. After 24 hrs, untagged wild-type or C8P mutant Humanin peptides were introduced into cells using ChariotTM reagent, and 2 h later cells were treated with 1 μM STS. After 4 h, the percentage of cells with translocated Bax was determined (mean±SD; n=3) by confocal microscopy (A) and representative photomicrographs (B). (C) Wild-type or C8P mutant Humanin peptides were introduced into Cos7 cells using ChariotTM reagent. Cytosolic (C) and mitochondria-containing (M) fractions were isolated by differential centrifugation 23 and analyzed by immunoblotting using anti-Bax (top), Hsp60 (middle) (mitochondrial marker), or Tubulin (bottom) (cytosol marker) antibodies. (D) HN or mutant control double-strand siRNAs were transfected into SF268 cells. After 48 h, cells were cultured without (Control) or with 0.1 uM STS. After 24 hr, cells were fractionated and analyzed by immunoblotting as above. (E) Isolated mitochondria were mixed with 400 ng Bax protein, with or without preincubating Bax with 100 uM Humanin or Humanin(C8P) peptides for 10 min. After 3 h at 30° C., mitochondria were centrifuged and the resulting pellets (P) and supernatants (S) were analyzed by immunoblotting using anti-Cytochrome c (top), Hsp60 (middle), and Bax (bottom) antibodies. (F) HN peptide enforces the interaction of Bax TM domain with Bax.TM. Lysates from HEK293T cells expressing Flag-Bax.TM were pretreated with or without Humanin or Humanin(C8P) peptides. Lysates were then mixed in vitro with lysates of HEK293T cells expressing GFP-TM(Bax). Immunoprecipitations were performed with anti-Flag antibody, analyzing lysates and immunoprecipitates (IP) by immunoblotting using monoclonal anti-GFP antibody.
To determine whether Humanin can act directly on Bax, the effects of Humanin on isolated mitochondria were tested. Addition of recombinant purified Bax protein to mitochondria in vitro induces cytochrome c release (Jurgensmeier et al., Proc. Natl. Acad. Sci. USA 95:4997-5002 (1998)). […] Therefore Humanin can directly suppress Bax targeting to mitochondria, without requirement for intact cells.
Cytochrome c release assays were performed as follows. Mitochondria were isolated from HCT116 cells by differential centrifugation as described above. Purified recombinant human Bax protein (400 ng for each sample) was pre-incubated with or without 100 μM synthetic Humanin peptide or mutant Humanin (C8P) peptide for 10 min at 4° C. The untreated or peptide pre-treated Baxprotein samples were then mixed with equal amount of HCT116 mitochondria (in a volume of 40 μl) at 30° C. for 3 hours. […]

The target of another test is T1, GFP-Bax (Homo sapiens, UniProt Q07812).
T1 construct: expressed in transfected cells; host or cells: Cos-7
T1 sequence (Q07812 whole entry): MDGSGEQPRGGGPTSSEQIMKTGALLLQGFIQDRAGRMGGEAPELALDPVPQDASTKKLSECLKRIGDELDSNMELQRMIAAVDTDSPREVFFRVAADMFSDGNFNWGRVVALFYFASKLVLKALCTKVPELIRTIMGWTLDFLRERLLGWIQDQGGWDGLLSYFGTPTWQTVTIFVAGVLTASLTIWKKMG
As to the kind of experiment: STS-induced GFP-Bax translocation to mitochondria in Cos7 cells (confocal microscopy). It is filed as cell-based. To be noted: peptide transduced with Chariot, 1 μM STS. As to the method: as §1, with “(F) HN peptide enforces the interaction of Bax TM domain with Bax.TM. Lysates from HEK293T cells expressing Flag-Bax.TM were pretreated with or without Humanin or Humanin(C8P) peptides. Lysates were then mixed in vitro with lysates of HEK293T cells expressing GFP-TM(Bax). Immunoprecipitations were performed with anti-Flag antibody, analyzing lysates and immunoprecipitates (IP) by immunoblotting using monoclonal anti-GFP antibody.” left out

The next test deals with endogenous Bax protein. As to the kind of experiment: Subcellular fractionation and immunoblot of endogenous Bax after STS. The format is cell-based. To be noted: Cos7 cells, untagged peptides, STS. On the procedure:
as §1, with “(E) Isolated mitochondria were mixed with 400 ng Bax protein, with or without preincubating Bax with 100 uM Humanin or Humanin(C8P) peptides for 10 min.” left out, “(F) HN peptide enforces the interaction of Bax TM domain with Bax.TM. Lysates from HEK293T cells expressing Flag-Bax.TM were pretreated with or without Humanin or Humanin(C8P) peptides. Lysates were then mixed in vitro with lysates of HEK293T cells expressing GFP-TM(Bax). Immunoprecipitations were performed with anti-Flag antibody, analyzing lysates and immunoprecipitates (IP) by immunoblotting using monoclonal anti-GFP antibody.” left out
These findings were also confirmed by subcellular fractionation, where cytosol and mitochondria-enriched heavy membrane preparations were prepared from Cos7 cells transduced with untagged Humanin or Humanin(C8P) peptides, and the relative amounts of endogenous Bax protein in these two fractions were measured by immunoblot analysis of samples normalized for cell-equivalents. […] Differences in the relative potency of Humanin at blocking Bax translocation as measured by microscopy (FIG. 7A) versus cell fractionation methods (FIG. 7C) can be explained by differences in the sensitivity of the assays, or could possibly indicate that even in cells where some Bax translocation has occurred, less of the total Bax protein associated with mitochondria. […]
Background: A western blot detects proteins with antibodies after separation by electrophoresis.

Chain of purified recombinant Bax (Q07812 whole entry): as above

Consider “Humanin: 24 amino acid polypeptide, cytosolic form of human Humanin (SEQ ID NO:2); used as synthetic peptide or expressed fusion”, for which, in the test with purified recombinant Bax, the “Bax association with mitochondria” value is “suppressed” and the cytochrome c release result is reported as “reduced”. The “suppression of GFP-Bax translocation” value with GFP-Bax is “about half”. Also, in the test on endogenous Bax protein, the “Bax translocation by subcellular fractionation” value is reported as “reduced”.
